Test results: the supplement of paper PMC12855868

B1: library; numbered along this chain (parent)
chain: MAAAGGARLLRAASAVLGGPAGRWLHHAGSRAGSSGLLRNRGPGGSAEASRSLSVSARARSSSEDKITVHFINRDGETLTTKGKVGDSLLDVVVENNLDIDGFGACEGTLACSTCHLIFEDHIYEKLDAITDEENDMLDLAYGLTDRSRLGCQICLTKSMDNMTVRVPETVADARQSIDVGKTS

Variants of: B1
Assay: scaled log2 fold change in cell abundance, elesclomol vs control (0 = silent mean, 1 = nonsense mean) (scaled log2 ratio); higher = higher viability under elesclomol (loss of FDX1 cuproptosis function)
Details: glucose 10 mM
[1] = with ABC1 FDX1 KO, elesclomol 5 nM, 14 days
[2] = with HEK293T FDX1 KO, elesclomol 40 nM, 11 days
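Also: variant abundance is its share of total variant reads in each endpoint sample, from next-generation sequencing of the integrated ORF PCR-amplified out of genomic DNA.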

## D173G
[1]
  scaled log2 fold change: 0.473
[2]
  scaled log2 fold change: -0.138

## D173M
[1]
  scaled log2 fold change: -0.417
[2]
  scaled log2 fold change: 0.0547

## D173A
[1]
  scaled log2 fold change: 0.245
[2]
  scaled log2 fold change: 0.105

## D173N
[1]
  scaled log2 fold change: 0.304
[2]
  scaled log2 fold change: -0.47

## D173T
[1]
  scaled log2 fold change: -0.0187

## D173S
[1]
  scaled log2 fold change: 0.248
[2]
  scaled log2 fold change: -0.827

## D173Q
[1]
  scaled log2 fold change: 0.224
[2]
  scaled log2 fold change: 0.251

## D173Y
[1]
  scaled log2 fold change: 0.241
[2]
  scaled log2 fold change: -0.0391

## D173R
[1]
  scaled log2 fold change: 0.198
[2]
  scaled log2 fold change: 0.613

## D173L
[1]
  scaled log2 fold change: -0.299
[2]
  scaled log2 fold change: 0.205

## D173K
[1]
  scaled log2 fold change: 0.645
[2]
  scaled log2 fold change: 0.0902

## D173C
[1]
  scaled log2 fold change: -0.031
[2]
  scaled log2 fold change: 0.0714

## D173P
[1]
  scaled log2 fold change: 0.0487
[2]
  scaled log2 fold change: 0.601

## D173W
[1]
  scaled log2 fold change: -0.0293

## D173F
[1]
  scaled log2 fold change: 0.306
[2]
  scaled log2 fold change: -0.0815

## D173H
[1]
  scaled log2 fold change: 0.000185
[2]
  scaled log2 fold change: -0.579

## D173V
[1]
  scaled log2 fold change: 0.418
[2]
  scaled log2 fold change: -0.196

## D173E
[1]
  scaled log2 fold change: 0.188
[2]
  scaled log2 fold change: 1.27

## T170F
[1]
  scaled log2 fold change: 0.262
[2]
  scaled log2 fold change: 0.826

## T170R
[1]
  scaled log2 fold change: -0.159

## T170H
[1]
  scaled log2 fold change: -0.102
[2]
  scaled log2 fold change: -1.19

## T170I
[1]
  scaled log2 fold change: -0.092
[2]
  scaled log2 fold change: 0.126

## T170L
[1]
  scaled log2 fold change: -0.0824
[2]
  scaled log2 fold change: -0.244

## T170V
[1]
  scaled log2 fold change: -0.0936
[2]
  scaled log2 fold change: -0.713

## T170W
[1]
  scaled log2 fold change: -0.0505
[2]
  scaled log2 fold change: 0.993

## T170Q
[1]
  scaled log2 fold change: 0.241
[2]
  scaled log2 fold change: -0.893

## T170D
[1]
  scaled log2 fold change: 0.239

## T170P
[1]
  scaled log2 fold change: -0.219
[2]
  scaled log2 fold change: 0.16

## T170M
[1]
  scaled log2 fold change: -0.185

## T170E
[1]
  scaled log2 fold change: 0.0373
[2]
  scaled log2 fold change: -0.644

## T170A
[1]
  scaled log2 fold change: -0.0897
[2]
  scaled log2 fold change: -0.0909

## T170S
[1]
  scaled log2 fold change: -0.088
[2]
  scaled log2 fold change: -0.432

## T170C
[1]
  scaled log2 fold change: 0.268
[2]
  scaled log2 fold change: -0.365

## T170N
[1]
  scaled log2 fold change: -0.0752
[2]
  scaled log2 fold change: 0.953

## T170K
[1]
  scaled log2 fold change: 0.0703
[2]
  scaled log2 fold change: 0.727

## T170Y
[1]
  scaled log2 fold change: 0.0553
[2]
  scaled log2 fold change: -0.221

## T170G
[1]
  scaled log2 fold change: 0.233
[2]
  scaled log2 fold change: -0.241

## A174W
[1]
  scaled log2 fold change: 0.23
[2]
  scaled log2 fold change: -0.353

## A174T
[1]
  scaled log2 fold change: 0.187
[2]
  scaled log2 fold change: -0.546

## A174M
[1]
  scaled log2 fold change: 0.0375
[2]
  scaled log2 fold change: -0.275

## A174E
[1]
  scaled log2 fold change: -0.219
[2]
  scaled log2 fold change: 0.0347

## A174I
[1]
  scaled log2 fold change: 0.163
[2]
  scaled log2 fold change: 0.249

## A174Q
[1]
  scaled log2 fold change: -0.051

## A174V
[1]
  scaled log2 fold change: 0.037
[2]
  scaled log2 fold change: -0.188

## A174C
[1]
  scaled log2 fold change: -0.397

## A174L
[1]
  scaled log2 fold change: 0.255
[2]
  scaled log2 fold change: 0.483

## A174G
[1]
  scaled log2 fold change: -0.324
[2]
  scaled log2 fold change: 0.643

## A174D
[1]
  scaled log2 fold change: -0.995
[2]
  scaled log2 fold change: 0.361

## A174N
[1]
  scaled log2 fold change: -0.0564

## A174K
[1]
  scaled log2 fold change: -0.0242
[2]
  scaled log2 fold change: 0.0836

## A174P
[1]
  scaled log2 fold change: -0.155
[2]
  scaled log2 fold change: -0.277

## A174F
[1]
  scaled log2 fold change: -1.02
[2]
  scaled log2 fold change: -1.07

## A174S
[1]
  scaled log2 fold change: -0.111
[2]
  scaled log2 fold change: -0.662

## A174R
[1]
  scaled log2 fold change: -0.108
[2]
  scaled log2 fold change: 0.908

## A174Y
[1]
  scaled log2 fold change: 0.11
[2]
  scaled log2 fold change: 0.358

## A174H
[1]
  scaled log2 fold change: 0.267
[2]
  scaled log2 fold change: -0.0112

## S177F
[1]
  scaled log2 fold change: -0.0241
[2]
  scaled log2 fold change: -0.0862

## S177C
[1]
  scaled log2 fold change: -0.309

## S177H
[1]
  scaled log2 fold change: 0.139
[2]
  scaled log2 fold change: -0.562

## S177N
[1]
  scaled log2 fold change: 0.00267
[2]
  scaled log2 fold change: 0.0839

## S177Q
[1]
  scaled log2 fold change: 0.143
[2]
  scaled log2 fold change: -0.314

## S177M
[1]
  scaled log2 fold change: -0.566
[2]
  scaled log2 fold change: 0.0434

## S177K
[1]
  scaled log2 fold change: 0.281
[2]
  scaled log2 fold change: -0.228

## S177A
[1]
  scaled log2 fold change: -0.0907

## S177W
[1]
  scaled log2 fold change: 0.0273
[2]
  scaled log2 fold change: 0.264

## S177P
[1]
  scaled log2 fold change: -0.213
[2]
  scaled log2 fold change: -0.486

## S177I
[1]
  scaled log2 fold change: -0.08
[2]
  scaled log2 fold change: 0.665

## S177Y
[1]
  scaled log2 fold change: -1.05
[2]
  scaled log2 fold change: 0.126

## S177E
[1]
  scaled log2 fold change: -0.0815
[2]
  scaled log2 fold change: -0.019

## S177D
[1]
  scaled log2 fold change: -1.44
[2]
  scaled log2 fold change: -0.675

## S177G
[1]
  scaled log2 fold change: -0.315
[2]
  scaled log2 fold change: 0.0748

## S177L
[1]
  scaled log2 fold change: -0.34
[2]
  scaled log2 fold change: -0.529

## S177R
[1]
  scaled log2 fold change: -0.0538
[2]
  scaled log2 fold change: -0.798

## S177T
[1]
  scaled log2 fold change: -0.0709
[2]
  scaled log2 fold change: -0.492

## S177V
[1]
  scaled log2 fold change: -0.287
[2]
  scaled log2 fold change: 0.49

## I178N
[1]
  scaled log2 fold change: 0.142
[2]
  scaled log2 fold change: 0.216

## I178K
[1]
  scaled log2 fold change: 0.421
[2]
  scaled log2 fold change: 1.24

## I178E
[1]
  scaled log2 fold change: 0.2
[2]
  scaled log2 fold change: -0.114

## I178V
[1]
  scaled log2 fold change: -0.343
[2]
  scaled log2 fold change: 0.0591

## I178R
[1]
  scaled log2 fold change: 0.265
[2]
  scaled log2 fold change: -0.46

## I178C
[1]
  scaled log2 fold change: 0.576
[2]
  scaled log2 fold change: -0.695

## I178H
[1]
  scaled log2 fold change: -0.366
[2]
  scaled log2 fold change: 0.244

## I178A
[1]
  scaled log2 fold change: -0.325
[2]
  scaled log2 fold change: 0.476

## I178M
[1]
  scaled log2 fold change: -0.147
[2]
  scaled log2 fold change: 0.0752

## I178Y
[1]
  scaled log2 fold change: -1.49
[2]
  scaled log2 fold change: 0.141

## I178S
[1]
  scaled log2 fold change: 0.197
[2]
  scaled log2 fold change: 0.0683

## I178T
[1]
  scaled log2 fold change: 0.00283
[2]
  scaled log2 fold change: -0.626

## I178L
[1]
  scaled log2 fold change: 0.552
[2]
  scaled log2 fold change: -0.187

## I178F
[1]
  scaled log2 fold change: -0.214
[2]
  scaled log2 fold change: 0.801

## I178P
[1]
  scaled log2 fold change: -0.0627
[2]
  scaled log2 fold change: 0.399

## I178W
[1]
  scaled log2 fold change: 0.246
[2]
  scaled log2 fold change: -0.636

## I178D
[1]
  scaled log2 fold change: 0.156
[2]
  scaled log2 fold change: 1.21

## I178G
[1]
  scaled log2 fold change: -0.381

## I178Q
[1]
  scaled log2 fold change: -0.0255
[2]
  scaled log2 fold change: 0.28

## V180C
[1]
  scaled log2 fold change: 0.235
[2]
  scaled log2 fold change: 0.216

## V180E
[1]
  scaled log2 fold change: -0.352
[2]
  scaled log2 fold change: -0.141

## V180A
[1]
  scaled log2 fold change: -0.00321
[2]
  scaled log2 fold change: 2.72

## V180F
[1]
  scaled log2 fold change: 0.0635
[2]
  scaled log2 fold change: 0.0689

## V180D
[1]
  scaled log2 fold change: 0.293

## V171C
[1]
  scaled log2 fold change: -0.178
[2]
  scaled log2 fold change: -0.0893

## V171S
[1]
  scaled log2 fold change: -0.0546
[2]
  scaled log2 fold change: 0.136

## V171H
[1]
  scaled log2 fold change: -0.198
[2]
  scaled log2 fold change: -0.163

## V171N
[1]
  scaled log2 fold change: -0.524
[2]
  scaled log2 fold change: 0.216

## V171T
[1]
  scaled log2 fold change: -0.214
[2]
  scaled log2 fold change: -0.343

## V171K
[1]
  scaled log2 fold change: 4.83e-05
[2]
  scaled log2 fold change: -0.343

## V171L
[1]
  scaled log2 fold change: 0.231
[2]
  scaled log2 fold change: 0.229

## V171W
[1]
  scaled log2 fold change: 0.0569
[2]
  scaled log2 fold change: 0.292

## V171F
[1]
  scaled log2 fold change: 0.0552
[2]
  scaled log2 fold change: -0.419

## V171P
[1]
  scaled log2 fold change: 0.142
[2]
  scaled log2 fold change: 0.0269

## V171A
[1]
  scaled log2 fold change: -0.586
[2]
  scaled log2 fold change: 0.229

## V171Q
[1]
  scaled log2 fold change: -0.00995
[2]
  scaled log2 fold change: 0.876

## V171D
[1]
  scaled log2 fold change: -0.592
[2]
  scaled log2 fold change: -0.239

## V171R
[1]
  scaled log2 fold change: -0.31
[2]
  scaled log2 fold change: -0.328

## V171M
[1]
  scaled log2 fold change: 0.452
[2]
  scaled log2 fold change: 0.0122

## V171Y
[1]
  scaled log2 fold change: -0.342
[2]
  scaled log2 fold change: -0.405

## V171E
[1]
  scaled log2 fold change: 0.182
[2]
  scaled log2 fold change: -0.192

## V171I
[1]
  scaled log2 fold change: -0.139
[2]
  scaled log2 fold change: 0.238

## D179S
[1]
  scaled log2 fold change: 0.558
[2]
  scaled log2 fold change: 0.929

## D179G
[1]
  scaled log2 fold change: 0.226
[2]
  scaled log2 fold change: 0.304
